Assays:
BaF3 cells = assay: Cytokine-dependency growth of BaF3 cells transfected with human EpoR constructs; type: cell-based, murine; details: for growth of BaF3 transfectants: no exogenous IL-3
Description: The functionality of the EpoR(t439; R154C) was tested and compared to the wild-type EpoR (wtEpoR) and EpoR(t439) using the BaF3 cell line. The cDNAs encoding these three different EpoRs were subcloned into the pcDNA3.1 expression vector, which provides high-level constitutive expression of proteins in mammalian cells and also contains the neomycin gene for the selection of stable transfectant with G418. The vector constructs were electroporated into BaF3 cells and stable transfectants were isolated in the presence of 600 ug/ml G418. BaF3 transfectants were maintained in RPMI-1640 with 10% FBS and 5% WEHI conditioned medium (a source of murine IL-3), except during the cytokine-dependency studies when cells were maintained in RPMI-1640 plus 10% FBS, along with the indicated cytokines. Growth of the different EpoR transfectants in the presence of either murine IL-3 or two different doses of Epo was compared to that of the parental (non-transfected) BaF3 cells (FIG. 7). […] All three EpoR constructs encode functional receptors that allow expansion of the BaF3 cells in the presence of Epo without exogenous IL-3.

[1] = test system: erythroid-cultured CD34^+lin^- cells; assay: Methylcellulose colony-forming assay after 14 days liquid culture in G418; type: cell-based, human; details: after 14 days liquid culture with 500 ug/ml G418
Description: Cells transfected with either EpoR(t439; R154C)/pcDNA3.1 or the pcDNA3.1 vector alone were placed in liquid culture (IMDM, 1% BSA, 10 ng/ml rhIL-3, 50 ng/ml SCF and 2 U/ml EPO) in the presence of 500 ug/ml G418 for 14 days. At this time, cells were counted for viability by trypan-blue dye exclusion and methylcellose colony-forming assays were performed in IMDM, 1% methylcellulose, 30% FBS, 1% BSA, 10^−4 M β mercaptoethanol, and […] glutamine, IL-3 (10 ng/ml), SCF (50 ng/ml), EPO (2 U/ml) and 500 ug/ml G418. […] No colonies were detected in the untransfected or “mock” transfected controls. Thus, expression of the EpoR(t439; R154C)/pcDNA3.1 plasmid not only conferred G418 resistance but increased the number of erythroid progenitors detectable after 14 days of liquid culture.

[2] = test system: erythroid-cultured CD34^+lin^- cells; assay: Methylcellulose colony-forming assay two to three days after transfection of cultured erythroid cells; type: cell-based, human; details: for # of erythroid colonies in EpoR(t439; R154C) transfected samples: BFU-E and CFU-E; for increase in erythroid colonies: versus untransfected or mock transfected control
Description: CD34^+lin^− cells cultured for 7 to 10 days in EPSFM+LDL were washed in EB and subjected to electroporation in the presence of EpoR(t439; R154C)/pcDNA3.1 expression vector as described in Example 3. Two to three days post-transfection, aliquots of untransfected and EpoR(t439; R154C)/pcDNA3.1 transfected cells were counted for viability by trypan-blue dye exclusion and methylcellose colony-forming assays were performed in IMDM, 1% methylcellulose, 30% FBS, 1% BSA, 10^−4 M β mercaptoethanol, and […] glutamine, IL-3 (10 ng/ml), SCF (50 ng/ml) and EPO (2 U/ml).

B1: EpoR(t439; R154C): human EpoR truncated at amino acid 439 with R154C point mutation; constitutively active (SEQ ID NOS 6 and 7) (protein, listed as Homo sapiens)
chain: MDHLGASLWPQVGSLCLLLAGAAWAPPPNLPDPKFESKAALLAARGPEELLCFTERLEDLVCFWEEAASAGVGPGNYSFSYQLEDEPWKLCRLHQAPTARGAVRFWCSLPTADTSSFVPLELRVTAASGAPRYHRVIHINEVVLLDAPVGLVACLADESGHVVLRWLPPPETPMTSHIRYEVDVSAGNGAGSVQRVEILEGRTECVLSNLRGRTRYTFAVRARMAEPSFGGFWSAWSEPVSLLTPSDLDPLILTLSLILVVILVLLTVLALLSHRRALKQKIWPGIPSPESEFEGLFTTHKGNFQLWLYQNDGCLWWSPCTPFTEDPPASLEVLSERCWGTMQAVEPGTDDEGPLLEPVGSEHAQDTYLVLDKWLLPRNPPSEDLPGPGGSVDIVAMDEGSEASSCSSALASKPSPEGASAASFEYTILDPSSQLLRP
BaF3 cells; 0.02 U/ml Epo
  growth of BaF3 transfectants: grew in the presence of either 0.02 or 2 U/ml Epo but less than in the presence of IL-3
BaF3 cells; 2 U/ml Epo
  growth of BaF3 transfectants: grew in the presence of either 0.02 or 2 U/ml Epo but less than in the presence of IL-3
BaF3 cells; absence of exogenous cytokines
  expansion of BaF3 cells: supported expansion
BaF3 cells; conclusion from BaF3 growth
  functionality of the EpoR: constitutively active form of the EpoR
[1]
  erythroid colonies compared to pcDNA3.1 vector alone: More erythroid colonies
[2]; Experiment # 1
  # of erythroid colonies in EpoR(t439; R154C) transfected samples: 428
  increase in erythroid colonies: +388
[2]; Experiment # 2
  # of erythroid colonies in EpoR(t439; R154C) transfected samples: 522
  increase in erythroid colonies: +98
[2]; Experiment # 3
  # of erythroid colonies in EpoR(t439; R154C) transfected samples: 66
  increase in erythroid colonies: +66

Reference: patent US6361998B1, “Efficient culture of stem cells for the production of hemoglobin” (Hemosol Inc., priority 1999, dated 2002)
